Reference: paper doi:10.1101/856021 (2019)

Target: Jil-1 peptide 984-1004 F989A (Drosophila, UniProt Q9V3I5 984-994, F989A)
Assay: ITC

B1: dP75 IBD-containing C-terminus region (residues 209-445) (domain or fragment)
chain: AAVTPIQKRSRPVNNIRNEMLMVYMPTAKCLGIVINYKKPESFESAAAEEAWMENARKEALELKLKLESGQINPESMPDRIVVEPTRSEIPKQEALRFIEELIEHEDALFMERDFIQLSQQLRECLGLRRANVGKCLEILEQFKEVEFTKLMLLRNPECVDIMRRLRRYVGNLELWKMDLSDEVEFKERAQTIRKVSSGIYDGFKSLFNPEPESEDNFWIDFCEKVKIYKTYTKNIN
Question: With B1 as the binder, how does the Kd read?
Answer: Its Kd is 122 µM.
